Laboratory results as given in the RNAGym collection of RNA variant scans (doi:10.1073/pnas.2313332121).
Fewer inactive variants are shown than the library holds.

B1: TPR 5TU (parent)
chain: GGAUCUUCUCGAUCUAACAAAAAAGACAAAUCUGCCACAAAGCUUGAGAGCAUCUUCGGAUGCAGAGGCGGCAGCCUUCGGUGGCGCGAUAGCGCCAACGUUCUCAACUAUGACACGCAAAACGCGUGCUCCGUUGAAUGGAGUUUAUCAUG

Variants of: B1
Assay: polymerase ribozyme fitness, log enrichment relative to wild type (log ratio); higher = more active; in vitro selection for triplet polymerase activity
Outline: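 Frozen incubation at −7 °C formed the core of a single, triplicate in vitro selection round applied to PCR-built, transcribed mutant libraries of each subunit of a heterodimeric triplet polymerase ribozyme. Extended constructs were gel-excised, captured with streptavidin beads and amplified by RT-PCR, and input and output libraries were Illumina-sequenced with a filter of ≥10 input reads and ≥1 read per output. Fitness is the logarithm of genotype enrichment relative to wild-type enrichment, with inverse-variance-weighted replicate averaging, and the logarithm is base 2.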

GGAUCUUCUCGAUCUAACAAAACAGACAAAUCUGCCACAAAGCCUGAGAGCAUCUUCGGAUGCCGAGGCGGCAGCCUUCGGUGGCGCGAUACCGCCUACGUUCUCAACUAUGACACGCAAAACGCGUGCUCCGUUGAAUGGAGUUUAUCAUG and GGAUCUUCUCGAUCUAACAAAAGAGACAAGUCUGCCACAAAGCUUGAGAGCUUCUUCGGAUGCAGAGGCGGCAGCCUUCGGUGGCGCGAUAGCGCCAACGUUCUCAACUAUGACAUGCAAAACGCGUGCUCUGUUGAAUGGAGUUUAUCAUG cannot be ordered by “polymerase ribozyme fitness (log ratio)” value: at most -4.2 for the first, at most -4.2 for the second.

GGAUCUUCUCGAUCUAACAAAACAGACAAAUCUGCCACAAAGCUUGAGAGCAUCUUCGGAUGCAGAGGCGGCAGCCUUCGGUGGCGCUAUAGCGCCAACGUUCUCAACUAUGACACGCAAAACGCGUGCUCCGUUGAAUGGAGGUUAUCAUG and GGAUCUUCUCGAUCUAACAAAACAGACAAAUCAGCCACAAGGCUAGAGAGCAUCUUCGGAUGCAGAGGCGGCAGCCUUCGGUGGCGGGAUAGCGCCAACGUUGUCAACUAUGACACGCAAAACGCGUGCUCCGUUGAAUGGAGUUUAUCAUG cannot be ordered by “polymerase ribozyme fitness (log ratio)” value: at most -4.2 for the first, at most -4.2 for the second.

GGAUCUUCUCGAUCUAACAAAACAGACAAAUCUGCCACAAAGCUUGAGAGCAUCUUCGGAUGCAGAGGCGGCAGCCUUCGGUGGCGCGAUAGCGCCAACGUUCUCAACUAUGAGACGCAAAACGCGUGCUCCGUUGAAUGGAGUUUAUCAUG and GGAUCUUCUCGAUCUAACAAAACAGACAAAUCUGCCACAAAGCUUGAGAGCAUUAUCGGAUGCAGAGGCGACAGCCUUCGGUGGCGCGAUAGCGCCAACGUUCUCAACUAUGACACGCAAAGCGCGUGCUCCGUUGAAUGGAGUUUAUCAUG cannot be ordered by “polymerase ribozyme fitness (log ratio)” value: at most -4.2 for the first, at most -4.2 for the second.

GGAUCUUCUCGAUCUAACAAAACAGACAAAUCUGCCACAAAGCUUGAGAGCAUCUUCAGAUGCAGAGGCGGCAGCCUUCGGUGGCGUGAUUGCGCCAACGUUCUCAACUAUGACACGCAAAACGCGUGCUCCGUUGAAUGGAGUUUAUCAUG and GGAUCUUCUCGAUCUAACAAAACAGACAAAUCUGCCACAAAGUUUGAGAGCAGCUUCGGAUGCAGAGGCGGCAGCCUUCGCUGGCGAGAUAGCGCCAACGUUCUCAACUAUGACACGCAAAACGCGUGCUCCGUUGAAUGGAAUUUAUCAUG cannot be ordered by “polymerase ribozyme fitness (log ratio)” value: at most -4.2 for the first, at most -4.2 for the second.

Going from GGAUCUUCUCGAUCUAACAAAACAGACAAAUCUGCCACAAAGCUUGAGAGCAUCUUCGGAUGCAGAGGCGGCAGCCUUCGGUGGCGCGAUAGCGCGAACGUUCUCAACUAUGACACGCAAAACGCGUGCUCCGUUGAAUGGAGUUUAUCAUG to GGAUCUUCUCGAUCUAACAAAACAAACAAAUCUGCCACAAAGCUUGAGAGCAUCAUCGGAGGCAGAGACGGCAGCCUUCGGUGGCGCGAUAUCGCCUACGUUCUCAACUAUGACACGCAAAACACGUCCUCCGUUGAAUGGAGUUUAUCAUG, the “polymerase ribozyme fitness (log ratio)” value falls from -3.81 to at most -4.2.

GGAUCUUCUCGAUCUAACAAAACAGACAAAUCUGCCACAAAGCUUGAGAGCAUCUUCGGAUGCAGAGGCGGCAGCCUUCGGUGGCGUGAUAGCGCCAACGUUCUCAACUAUUACACGCAAAACGCGUGCUCCGUUGAAUGGAGUUUAUCAUG and GGAUCUUCUCGAUCUAACAAAACAGACAAAUCUGCCACAAAGCUUGAGAGCAUCUUCGGAUGCAGAGGCGGCAGCCUUCGGUGGCGCGAUAGCGUCAACGUUCUCAACUAUGACACGCAAAACGCGUGCUCCGUUGAAUGGAGUUUAUCAUG are within 0.2 log units of each other in “polymerase ribozyme fitness (log ratio)” value: -3.99 for the first, -4.12 for the second.

GGAUCUUCUCGAUCUAACAAAAGAGACAUAUCUGCCACAAAGCUUGAGAGCAUCUUCGGAGGCAGAGGCGGCAGCCUUCGGUGGCGCGAUAGCGCCAAUGUUCUCAACUAUGACACGCAAAACGCGUGCUCCGUUGAAUGGAGUUUAUCAUG and GGAUCUUCUCGAUCUAACAAAACAGACAAAUCUGCCACAAAGCUUGAGAGCAUCUUCGGAUGCAGAGGCGGCAGCCUUCGGUGGCGGGAUAGCGCCAACGUUCUCAACUAUGACACGCAAAACGCGUGCUCCGUUGAAUGGAGUUUAUCAUG cannot be ordered by “polymerase ribozyme fitness (log ratio)” value: at most -4.2 for the first, at most -4.2 for the second.

Compared with GGAUCUUCUCGAUCUAACAAAACAGACAAAUCUGCCACAAAGCUUGAGAGCAUCUUCGGAUGCAGAGGCGGCAGCCUUCGGUGGCGUGAUAGCGCCAACGUUCUCAACUAUGACACGCAAAACGCGUGCUCCGUUGAAUGGAGUUUAUCAUG, GGAUCUUCUCGAUCUAACAAAACAGACAAAUCUGCCACAAAGCUUGAGAGCAUCUUCGGAUCCAGAGGCGGCAGCCUUCGGUGGGGCGAUAGCGCCAACGUUCUCAACUAUGACACGCAAAACGCGUGCUCCGAUGAAUGGAGUUUACCAUG is lower in “polymerase ribozyme fitness (log ratio)” value: -3.89 for the first, at most -4.2 for the second.

GGAUCUUCUCGAUCUAACAAAACAGACAAAUCUGCCACAAAGCUUGAGAGCAUCUUCGGAUGCAGAGGCGGCAGCUUUCGGUGGCGAGAUAGCGCCAACGUUCUCAACUAUGACACGCAAAACGCGUGCUCCGUUGAAUGGAGUUUAUCAUG and GGAUCUUCUCGAUCUAACAAAACAGACAAAUCUGCCACAAAGCAAGAGAGCAUCUUCGGAUGCAGAGGCGGCAACCUUCGGUGGCGCGAUGGCGCCAACGUUCUCAACUAUGACACGCAAAACGCGUGCUCCGUUGAAUGGAGUUUAUCAUG cannot be ordered by “polymerase ribozyme fitness (log ratio)” value: at most -4.2 for the first, at most -4.2 for the second.

Going from GGAUCUUCUCGAUCUAACAAAACAGACAAAUCUGCCACAAAGCUUGAGAGCAUCAUCGGAUGCAGAGGCGGCAGCCUUCGGUGGCGGGAUAGCGCCAACGUUCUCAACUAUGAGACGCAAAACGCGUGCUCCUUUUAAUGGAGUUUAUCAUG to GGAUCUUCUCGAUCUAACAAAAGAGACAAAUCUGCCACACAGCUUGAGAGCAUCUUCGGAUGCAGAGGCGGCAGCCUUCGAUGGCGCGAUAGCGCCAACGUUCUCAACUAUGACACGCAAAACGCGUGCUCCGUUGAAUGGAGUCUAUCAUG, the “polymerase ribozyme fitness (log ratio)” value rises from at most -4.2 to -3.98.

Going from GGAUCUUCUCGAUCUAACAAAACAGACAAAUCUGCCACAAAGCUUCGGAGCAUCUUCGGAUGCAGAGGCGGCAGCCUUCGGUGUCGAGAUAGUGCCAACGUUCUCAACGAUGACACGCAAAACGCGUGCUCCGUUGAAUGGAGUUUAUCAUG to GGAUCUUCUCGAUCUAACAAAAGUGAGAAAUCUGCCACAAAGCUUGAGAGCAUCAUCGGAUGCAGAGGCGGCAGCCUUCGGUGGCGCGAUAUCGCCAACGUUCUCAACUAUGACACGCAAAACGCGUGCUCCGUUGAAUGGAGUUUAUCAUG, the “polymerase ribozyme fitness (log ratio)” value rises from at most -4.2 to -3.98.

GGAUCUUCUCGAUCUAACAAAACAGACAAACCUGCCACAAAGCUUGAGAGCAUCUUCGGAUGCAGAGGCGGCAGCCUUCGGUGGCGCGAUAGCGCCAAUGUUCUCAACUAUGACACGCAAAAUGCGUGCUCCGCUGAAUGGAGUUUAUCAUG and GGAUCUUCUCGAUCUAACAAAACAGACAAAUCUGCCACAAAGCUUGAGAGCAUCAUCGGAUGCAGAGGCGGCAGCCUUCGGCGGCGCGAUAGCGCCAACGUUCUCAACUAUGACACGCAAAACGCGUGCUCCGUUUAAUGGAGUUUAUCAUG cannot be ordered by “polymerase ribozyme fitness (log ratio)” value: at most -4.2 for the first, at most -4.2 for the second.

GGAUCUUCUCGAUCUAACAAAACAGACAAAUCUGCCACAAAGCUUGAGAGCAUCUUCGGAUGCAGAGGCGGCAGCCUUCGGUGGCGGGAUGGCGCCAAAGUUGUCAACUAUGACACGCAAAACGCGUGCUCCGUUGAAUGGAGUUUAUCAUG and GGAUCUUCUCGAUCUAACAAAACAGACAAAUCUGCCACAAAGCUUGAGAGCAACUUCGGAUGCAGAGGCGGCAGCCUUCGGUCGCGCGAUGGCGCCAACGUUCUCAACUAUGACACGCAAAACGCGUGCUCCGUUGAAUGGAGUUUUUCAUG cannot be ordered by “polymerase ribozyme fitness (log ratio)” value: at most -4.2 for the first, at most -4.2 for the second.

GGAUCUUCUCGAUCUAACAAAAGAGACAAAUCUGCCGCGAAGCAUGAGAGCAUCUUCGGAUGCUGAGGCGGCAGUCUUCGGUGGCGCGAUAGCGUCAACGUUCUCAAAUAUGACACGCAAAACGCGUGCUCCGUUGAAUGGUGUUUAUCAUG and GGAUCUUCUCGAUCUAACAAAACAGACAAAGCUGCCACAAAGCUUGAGAGCAUCUUCGGAUGCAGAGGCGGCAGCCUUCGGUGGCGCGAUAGCGCCAACGUUCUCAAGUAUGACGCGCAAAACGCGUGCUCCGUUGAAUGGAGUUUAUCAUG cannot be ordered by “polymerase ribozyme fitness (log ratio)” value: at most -4.2 for the first, at most -4.2 for the second.

GGAUCUUCUCGAUCUAACAAAACAGACAAAUCUGCCACAAAUCUUGAGAGCAUCUUCGGAUGCAGAGGCGGCAGCCUUCGGUGGCGCGAUAGCGCCAACGUUCUCAACUAUGACACGCAAAACGCGUGCUCCGUUGUAUGGAGUUUAUCAUG and GGAUCUUCUCGAUCUAACAAAAGAGACAAAUCUGCCACUAAGCUUGCGAGCAGCUUCGGAUGCAGAGGCGGCAGCCUUCGGUGGCCCGAUAGCGCCAACGUUCUCGACUAUGACACGCAAAACGCGUGCUCCGUUGAAUGGAGUUUAUCAUG cannot be ordered by “polymerase ribozyme fitness (log ratio)” value: at most -4.2 for the first, at most -4.2 for the second.

Compared with GGAUCUUCUCGAUCUAACAAAACAGACAAAUCUGCCACAAAGCUUGAGAGCAUCUUCGGAUGCAGAGGCGGCAGCCUUCGGUGGCGCGAUAGAGCCAACGUUCUCAACUAUGACACGCAAAACGCGUGCUCCGUUGAAUGGAGUUUAUCAUG, GGAUCUUCUCGAUCUAACAAAAGAGUCAAAUCUGCCACAAAGCUUGAGAGCAUAUUCGGAUGCAGAGGCGGCAGCCUUCGGUGGCGCGAGGGCGCCAACGUUCUCAACUAUGACACGCAAAACGCGUGCUCCGUUGAAUGGAGUUUAUCAUG is lower in “polymerase ribozyme fitness (log ratio)” value: -3.87 for the first, at most -4.2 for the second.

First: GGAUCUUCUCGAUCUAACAAAAGAGACAAAUCUGCCACAAAGCUUGAGAGCAUCUUCGGAUGCAGAGGCGGCAGCCUUCGGUGGCGCGAUAGCGCCAACGUUCUCAACUAUGACACGCAAAACGCGUGCUCCGUUGAAUGGAGUUUAUCAUG
Second: GGAUCUUCUCGAUCUAACAAAACAGACAAAUCUGCCACAAAGAUUGAGAGCAUUUUCGGAUGCAGAGGCGGCUGCCUUCGGUGGCGCGAUAGCGCCAAGGUUCUCAACUAUGACACGCAAAACGCGUGCUCCGUUGAAUGGAGUUUAUCAUG
The “polymerase ribozyme fitness (log ratio)” value of the first is higher: -1.78 for the first, at most -4.2 for the second.

GGAUCUUCUCGAUCUAACAAAAGAGACGAAUCUGCCACUUAGCAUGAGAGCAUCUUCGGAAGCAGAGGCGGCAGCCUGCGGUGGUGCGAUAGCGCCAACGUUCUCAACUAUGACACGCAAAACGCGUGCUCCGUUGAAUGGAGUUUAUCAGG and GGAUCUUCUCGAUCUAACAAAACAGACAAAUCUGCCACAAAGCUUGAGAGCAUCUUCGGAUGCAGAGGCGGCAGCCUUCGGUGGCGCGAUAGUGCCAACGUUCUCAACUAUGACACGCAAAACGCGUGCUCCGUUGAAUGUAGUUUAUCAUG cannot be ordered by “polymerase ribozyme fitness (log ratio)” value: at most -4.2 for the first, at most -4.2 for the second.

GGAUCUUCUCGAUCUAACAAAACAGACAAAUCUGCCACAAAGCUUGAGAGCAUCUUCGAAUGCAGAGGCGGCAGCCUUCGGUGGCGCGAUAUCGCCAACGUUCCCAACUAUGCCACGCAAAAUACGUGCUCCGUUGAAUGGAGUUUAUCAUG and GGAUCUUCUCGAUCUAACAAAACAGACAAAUCUGCCACAAAGCUUGAGAGCAUCUUCGGAUGCAGAGGCGGCAGGCUUCGGUGGCGCGAUAGCGCCAACGUUUUCAACUAUGACACGCAAAACGCGUGCUCCGUUGAAUGGAGUUUAUCAUG cannot be ordered by “polymerase ribozyme fitness (log ratio)” value: at most -4.2 for the first, at most -4.2 for the second.
